Measured values taken from patent US20220162261A1 (published 2022).
Bridge positions count the residues as written; N and C are the ends. Square brackets hold non-standard residues; d marks the D form. Ends that are not written are not given here. Phe(4-COOH) = N[C@@H](Cc1ccc(C(=O)O)cc1)C(=O)O; Phe(4-tBu) = CC(C)(C)c1ccc(C[C@H](N)C(=O)O)cc1; NMeR = CN[C@@H](CCCNC(=N)N)C(=O)O; NMeE = CN[C@@H](CCC(=O)O)C(=O)O; β3hE = N[C@@H](CCC(=O)O)CC(=O)O; DIG = diglycolic acid (linker); Pen = CC(C)(S)[C@H](N)C(=O)O

Target: T1, human α4β7 integrin on cells (human, UniProt P13612 34-1032; P26010 20-798)
T1 construct: whole, on cells; also called α4β7 cell (Hu); RPMI8866 cells
Assay: RPMI8866 cell adhesion to MAdCAM-1

Binder	IC50 [µM]
Ac-[dK]C[NMeR]SDTLCW[dK]-NH2 (disulfide 2-8 (inferred); also: dimer linked by DIG, attachment not given here) [SEQ ID NO: 4]	> 0.01
Ac-[Pen][NMeR]SDTL[Pen]W[βGlu][dK]-NH2 (disulfide 1-7; not fully specified (residue 10); printed as (Ac Pen N-Me-R S D T L Pen W Beta-E k NH2)2 DIG; also: homodimer: two subunits joined by DIG linker) [SEQ ID NO: 1]	> 0.05
Ac-[Pen][NMeR]SDTL[Pen]W[dE][dK](Ac) (disulfide 1-7) [SEQ ID NO: 66]	> 10
Ac-[Pen][NMeR]SDTL[Pen]WD[dK]-NH2 (disulfide 1-7; not fully specified (residue 10); printed as (Ac Pen N-Me-R S D T L Pen W D k NH2)2 DIG, disulfide Pen-Pen; also: homodimer: two subunits linked by DIG via D-Lys10 side chain) [SEQ ID NO: 87]	> 0.025
Ac-[Pen][NMeR]SDTL[Pen]W[dE][dK]-NH2 (disulfide 1-7; not fully specified (residue 10); printed as (Ac Pen N-Me-R S D T L Pen W e k NH2)2 IDA PEG4 Biotine, disulfide Pen-Pen; also: homodimer: two subunits linked by IDA via D-Lys10 side chain, PEG4-Biotine on the linker) [SEQ ID NO: 72]	> 0.025
Ac-[Pen][NMeR]SDTL[Pen]HY[dK]-NH2 (disulfide 1-7; not fully specified (residue 10); printed as (Ac Pen N-Me-R S D T L Pen H Y k NH2)2 DIG, disulfide Pen-Pen; also: dimer, two subunits joined by DIG linker) [SEQ ID NO: 26]	> 0.1
Ac-[Pen][NMeR]SDTL[Pen]WN[dK]-NH2 (disulfide 1-7; not fully specified (residue 10); printed as (Ac Pen N-Me-R S D T L Pen W N k NH2)2 DIG, disulfide Pen-Pen; also: homodimer: two subunits linked by DIG via D-Lys10 side chain) [SEQ ID NO: 83]	> 0.05
Ac-[Pen][NMeR]SDTL[Pen]WF[dK]-NH2 (disulfide 1-7; not fully specified (residue 10); printed as (Ac Pen N-Me-R S D T L Pen W F k NH2)2 DIG, disulfide Pen-Pen; also: homodimer: two subunits linked by DIG via D-Lys10 side chain) [SEQ ID NO: 85]	≤ 0.01
Ac-[Pen][NMeR]SDTL[Pen]WQ[dK]-NH2 (disulfide 1-7; not fully specified (residue 10); printed as (Ac Pen N-Me-R S D T L Pen W Q k NH2)2 DIG, disulfide Pen-Pen; also: homodimer: two subunits linked by DIG via D-Lys10 side chain) [SEQ ID NO: 82]	> 0.05
Ac-[Pen][NMeR]SDTL[Pen]W[dE][dK]-NH2 (disulfide 1-7; not fully specified (residue 10); printed as (Ac Pen N-Me-R S D T L Pen W e k NH2)2 IDA, disulfide Pen-Pen; also: homodimer via IDA linker) [SEQ ID NO: 70]	> 0.025
Ac-[Pen][NMeR]SDTL[Pen][dW]E[dK]-NH2 (disulfide 1-7; not fully specified (residue 10); printed as (Ac Pen N-Me-R S D T L Pen w E k NH2)2 DIG, disulfide Pen-Pen; also: dimer, two subunits joined by DIG linker) [SEQ ID NO: 28]	> 0.05
Ac-[Pen][NMeR]SDTL[Pen]W[NMeE][dK]-NH2 (disulfide 1-7; not fully specified (residue 10); printed as (Ac Pen N-Me-R S D T L Pen W N-Me-E k NH2)2 DIG, disulfide Pen-Pen; also: dimer, two subunits joined by DIG linker) [SEQ ID NO: 31]	> 0.05
Ac-[Pen][NMeR]SDTL[Pen]WE[dK](Ac) (disulfide 1-7) [SEQ ID NO: 65]	> 10
Ac-[Pen][NMeR]SDTL[Pen]HE[dK]-NH2 (disulfide 1-7; not fully specified (residue 10); printed as (Ac Pen N-Me-R S D T L Pen H E k NH2)2 DIG, disulfide Pen-Pen; also: dimer, two subunits joined by DIG linker) [SEQ ID NO: 25]	> 0.01
Ac-[Pen][NMeR]SDTL[Pen]W[dE][dK]-NH2 (disulfide 1-7; not fully specified (residue 10); printed as (Ac Pen N-Me-R S D T L Pen W e k NH2)2 IDA Biotine, disulfide Pen-Pen; also: homodimer via IDA linker bearing biotin) [SEQ ID NO: 71]	> 0.025

Other lines, results leading:

IC50 [µM]	Binder
> 0.1	Ac-[Pen][NMeR]SDTL[Pen]WP[dK](DIG)-NH2 (disulfide 1-7; also: homodimer (…)2 DIG: the two subunits are joined through the K10 NZ by the DIG linker) [SEQ ID NO: 94]
> 0.01	Ac-[Pen][NMeR]SDTL[Pen]W[dW][dK]-NH2 (disulfide 1-7; not fully specified (residue 10); printed as (Ac Pen N-Me-R S D T L Pen W w k NH2)2 DIG, disulfide Pen-Pen; also: homodimer: two subunits joined by DIG linker) [SEQ ID NO: 110]
> 0.1	Ac-[Pen][NMeR]SDTL[Pen]H[dE][dK]-NH2 (disulfide 1-7; not fully specified (residue 10); printed as (Ac Pen N-Me-R S D T L Pen H e k NH2)2 DIG, disulfide Pen-Pen; also: homodimer: two subunits joined by DIG linker) [SEQ ID NO: 124]
> 0.1	Ac-[Pen][NMeR]SDTL[Pen]WPK(DIG)-NH2 (disulfide 1-7; also: homodimer (…)2 DIG: the two subunits are joined through the K10 NZ by the DIG linker) [SEQ ID NO: 95]
> 0.1	Ac-[Pen][NMeR]SDTL[Pen]W[dH][dK]-NH2 (disulfide 1-7; not fully specified (residue 10); printed as (Ac Pen N-Me-R S D T L Pen W h k NH2)2 DIG, disulfide Pen-Pen; also: homodimer: two subunits joined by DIG linker) [SEQ ID NO: 104]
> 0.1	Ac-[Pen][NMeR]SDTL[Pen]W[dF][dK]-NH2 (disulfide 1-7; not fully specified (residue 10); printed as (Ac Pen N-Me-R S D T L Pen W f k NH2)2 DIG, disulfide Pen-Pen; also: homodimer via DIG linker) [SEQ ID NO: 91]
> 0.1	Ac-[Pen][NMeR]SDIL[Pen][Phe(4-tBu)][β3hE][dK]-NH2 (disulfide 1-7; not fully specified (residue 10); printed as (Ac Pen N-Me-R S D I L Pen F(4-tBu) b-H-E k NH2)2 IDA, disulfide Pen-Pen; also: homodimer: two subunits joined by IDA linker) [SEQ ID NO: 186]
> 0.05	Ac-[Pen][NMeR]SDTL[Pen]W[dY][dK](DIG)-NH2 (disulfide 1-7; also: homodimer (…)2 DIG: the two subunits are joined through the K10 NZ by the DIG linker) [SEQ ID NO: 92]
> 0.05	Ac-[Pen][NMeR]SDTL[Pen]W[dP]K-NH2 (disulfide 1-7; also: homodimer, two subunits linked by DIG at Lys10) [SEQ ID NO: 96]
> 0.05	Ac-[Pen][NMeR]SDTL[Pen]W[Phe(4-COOH)][dK]-NH2 (disulfide 1-7; not fully specified (residue 10); printed as (Ac Pen N-Me-R S D T L Pen W F(4-COOH) k NH2)2 DIG, disulfide Pen-Pen; also: homodimer: two subunits joined by DIG linker) [SEQ ID NO: 105]
> 0.05	Ac-[Pen][NMeR]SDTL[Pen]Y[dE][dK]-NH2 (disulfide 1-7; not fully specified (residue 10); printed as (Ac Pen N-Me-R S D T L Pen Y e k NH2)2 DIG, disulfide Pen-Pen; also: homodimer: two subunits joined by DIG linker) [SEQ ID NO: 123]
